This note sets out measurements from publication PMC5264208, “Transitional changes in the CRP structure lead to the exposure of proinflammatory binding sites” (Nature Communications, 2017).

For experiment [1], the target named is T1, human complement factor 1q (human, UniProt P02745 23-245; P02746 28-253; P02747 29-245).
T1 construct: Complement C1q subcomponent subunit A, human; Complement C1q subcomponent subunit B, human; Complement C1q subcomponent subunit C, human; also called C1q; complement C1q; source: bought: Merck Chemicals GmbH; copies: 6 + 6 + 6
T1 sequence (P02745 23-245, chain 1 of 3): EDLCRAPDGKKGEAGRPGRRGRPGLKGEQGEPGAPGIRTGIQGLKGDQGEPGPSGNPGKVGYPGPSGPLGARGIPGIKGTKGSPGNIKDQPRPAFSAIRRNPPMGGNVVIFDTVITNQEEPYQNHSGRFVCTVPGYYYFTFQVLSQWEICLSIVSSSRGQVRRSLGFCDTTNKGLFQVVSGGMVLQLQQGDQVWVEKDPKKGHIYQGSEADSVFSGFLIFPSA
T1 sequence (P02746 28-253, chain 2 of 3): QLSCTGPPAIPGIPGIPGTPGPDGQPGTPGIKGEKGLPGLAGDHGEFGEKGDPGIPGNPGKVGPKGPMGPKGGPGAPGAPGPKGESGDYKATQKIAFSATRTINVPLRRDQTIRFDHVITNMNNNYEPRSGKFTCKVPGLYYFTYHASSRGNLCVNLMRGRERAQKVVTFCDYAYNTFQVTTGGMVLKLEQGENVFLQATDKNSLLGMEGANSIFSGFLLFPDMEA
T1 sequence (P02747 29-245, chain 3 of 3): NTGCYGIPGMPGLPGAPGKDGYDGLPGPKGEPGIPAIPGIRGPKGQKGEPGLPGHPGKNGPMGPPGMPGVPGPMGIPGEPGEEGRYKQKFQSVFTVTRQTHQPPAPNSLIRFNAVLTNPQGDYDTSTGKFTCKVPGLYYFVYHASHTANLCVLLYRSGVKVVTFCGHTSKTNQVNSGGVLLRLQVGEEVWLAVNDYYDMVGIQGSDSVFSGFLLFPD
Put plainly: real-time fluorescence binding (LigandTracer); human C1q (60 ug/ml) spotted on nitrocellulose; CMFDA-labelled THP-1 microvesicles preincubated 2 h at 37 °C with pCRP or mCRP (100 ug/ml) and added at 20 ug/ml; the read-out is the fluorescence of the microvesicles that carry the CRP. To be noted: both partners purified.

The target of experiment [2] is T2, Alexa Fluor 488-labelled C1q (human, UniProt P02745 23-245; P02746 28-253; P02747 29-245, Alexa Fluor 488 (site and chain not stated) | Alexa Fluor 488 (site and chain not stated) | Alexa Fluor 488 (site and chain not stated)).
T2 construct: Complement C1q subcomponent subunit A, human; Complement C1q subcomponent subunit B, human; Complement C1q subcomponent subunit C, human; Same protein as m3 with a fluorescent label; source: labelled with Alexa Fluor 488; copies: 6 + 6 + 6
T2 sequence (P02745 23-245, chain 1 of 3): as the sequence (P02745 23-245, chain 1 of 3) above
T2 sequence (P02746 28-253, chain 2 of 3): as the sequence (P02746 28-253, chain 2 of 3) above
T2 sequence (P02747 29-245, chain 3 of 3): as the sequence (P02747 29-245, chain 3 of 3) above
Put plainly: real-time fluorescence binding (LigandTracer); THP-1 microvesicles (0.5 mg/ml) spotted on nitrocellulose, blocked with 5% BSA; Alexa Fluor 488-labelled C1q added with or without pCRP. To be noted: both partners purified.

B1: pentameric C-reactive protein (natural protein, human, UniProt P02741 19-224, looked up)
chain: QTDMSRKAFVFPKESDTSYVSLKAPLTKPLKAFTVCLHFYTELSSTRGYSIFSYATKRQDNEILIFWSKDIGYSFTVGGSEILFEVPEVTVAPVHICTSWESASGIVEFWVDGKPRVRKSLKKGYTVGAEASIILGQEQDSFGGNFEGSQSLVGDIGNVNMWDFVLSPDEINTIYLGGPFSPNVLNWRALKYEVQGEVFTKPQLWP
notes: C-reactive protein, human; five identical subunits of about 23 kDa; also called pCRP; CRP; source: bought: Calbiochem; dialysed against D-PBS with 2 mM Ca2+
On to B1, for which the binding result in experiment [1] and in experiment [2] was “binds” in each case.
